Among the data in article PMC4022648 are stoichiometry N values, retold here.

The target of experiment [1] is naïve Hsp60 (human Hsp60 with its mitochondrial import signal) (human) (UniProt P10809). Put plainly: SAXS; 20 °C, Guinier analysis; naïve Hsp60 at 23.8 µM.
For experiment [2] the target is unchanged. Put plainly: SEC; HPLC size exclusion, Shodex 806 and 804 in series, 24 °C, 20 mM Tris-HCl pH 8 + 10% glycerol; naïve Hsp60 at 0.8-16.0 µM, compared with GroEL at 7.0 µM and BSA.
For experiment [3] the target is unchanged. Put plainly: SAXS; 20 °C, Guinier analysis; naïve Hsp60 at 79.5 µM, GroEL at 52.5 µM.
Experiment [4] has the same target. The experiment can be described thus: static light scattering; Rayleigh ratio at 90° divided by concentration; naïve Hsp60 at 1.6-47.6 µM; compared with ideal lines for tetradecamer (882 kDa) and heptamer (441 kDa).
Experiment [5] has the same target. The experiment can be described thus: native gel or EMSA; Blue native PAGE, 4-16% Bis-Tris gels, sample buffer with 1% digitonin and 0.5% DDM, pH 7.2, Coomassie G-250; naïve Hsp60 at 1.9-20.7 µM, GroEL at 1.0-18.9 µM.

“And” between values parts separate entries of the source, which are not always exact repeats. Equal entries are not always repeated.

As a reminder, the stoichiometry N is the number of molecules, sites or subunits per partner or assembly.

Regarding “naïve Hsp60 (human Hsp60 with its mitochondrial import signal) (from UniProt P10809 27-573) (natural protein)”, the stoichiometry N in experiment [1] was 7 and 14; in experiment [2] it was 7 and 14; in experiment [3] it was 14; in experiment [4], 7 and 14; in experiment [5], 7 and 14.
